Experimental data from the DeepSol protein solubility set.

Test: soluble on expression in E. coli; label from the status in PepcDB or PDB records

| Sequence | soluble on expression in E. coli |
| --- | --- |
| MQTSHSLPSAQLPLFQEAFWASNGAPLLDDVIDSPSSASIEEPAAFSELSLSGLPGHCLTLLAPILRELSEEQDARWLTLIAPPASLTHEWLRRAGLNRERILLLQAKDNAAALALSCEALRLGRSHTVVSWLEPLSRAARKQLSRAAQLGQAQSLNIRLG | soluble |
| STQEQTPQICVVGSGPAGFYTAQHLLKHHSRAHVDIYEKQLVPFGLVRFGVAPDHPEVKNVINTFTQTARSDRCAFYGNVEVGRDVTVQELQDAYHAVVLSYGAEDHQALDIPGEELPGVFSARAFVGWYNGLPENRELAPDLSCDTAVILGQGNVALDVARILLTPPDHLEKTDITEAALGALRQSRVKTVWIVGRRGPLQVAFTIKELREMIQLPGTRPMLDPADFLGLQDRIKEAARPRKRLMELLLRTATEKPGVEEAARRASASRAWGLRFFRSPQQVLPSPDGRRAAGIRLAVTRLEGIGEATRAVPTGDVEDLPCGLVLSSIGYKSRPIDPSVPFDPKLGVVPNMEGRVVDVPGLYCSGWVKRGPTGVITTTMTDSFLTGQILLQDLKAGHLPSGPRPGSAFIKALLDSRGVWPVSFSDWEKLDAEEVSRGQASGKPREKLLDPQEMLRLLGH | soluble |
| VPWEDVFKSFDPNPLAAGTIAQVHRATLETGDRVVVKVQRPTARADIEQDLALFEMFAEKVGKRPALNQVINMEDVFKHLSTSLHRELDFRQEANNIERMRTVLADYDRLAVPSIHWDLS | not soluble |
| MGSDKIHHHHHHVTHKDMEYALDRVLAGSEKRSRSLVEEEREVVAYHEAGHALVGWMLEHTDALLKYEISIFRQKFRFPLKPLKSRRKVHFLREFLCNFPQRILENFKKIQKSYSKIQIFHQKFTQNIKKLKFPVLGEFLKFPANNSSEFLKNLKNFIKKIFFFEIFGPKLPQKVTIIPRTSAALGFAQYSPRDKHLFSKDELFDRMCMMLGGRCAENLKFGRATSGAQDDLQKVTKSAYAQVKLYGMSSIVGPLSFPNTEGFQIKPYSKKFASTFDQEATLIVAKANEATTDLIKNNMDKLETIAQALLKREVLNYEDVKKL | not soluble |
| MRPYIINQTEQAQARFGINNDFPVNVILMQPTTSHETFLEGSDYVDFESTSKLRNWPIIVGNQKYFVDPAIFARNSDYFRILMENKFFLEGAIKQLNILDESPEDILKLITVISPNSLGLYPDVIDEQNVCTVLRLCDKYLMTNLKQNCVDYLKDYNPDSREPTDIFHLFYHLCFSLNAEYEHDHSLADVALEAMFVCLVELFNSTNVTKFYRFLIELQRKSGEKDSENLKRVTDAVLHGGSIFKHRISFSEEVQGLGCHQCSMRPPARQSRSKNRKSFVLYLCKSCNREVCVQCRRSLCSRLFEDWINELRS | not soluble |
| MSKMTRHDAQLYELKKKIEELKKIRGRGTELISLYIPAGYDLSKVMQQLREEYSTAQNIKSKTTRKNVLGALERAMQHLKLYKQTPENGLALFVGNVSEIEGNTDIRLWAIIPPEPLNVRLYRCDQTFVTEPLEEMLRVKDAYGLITVEKNEATIGLLRGKRIELLDELTSNVPGKTRAGGQSARRYERIREQETHEFMKRIGEHANRAFLPLLEKGELKGIIIGGPGPTKEEFVEGEYLHHELKKKILGVVDISYHGEYGLRELVEKASDILRDHEVIREKKLVNEFLKHVVKDTGLATYGEREVRRALEIGAVDVLLISEGYNKVRVRVKCNHCGWEELKTMSEEEYEVYRKKITKCPKCGSQNLTIEKWDVAEELIKMAEEAGSDVEIISLDTEEGQQFYRAFGGLGAILRFKI | soluble |
| MTRHALAYVAGAYEHPLRHAPDKSVAQLHAESARGALDDAGLSFADVDGYFCAGDAGLGPAYMVDYLNLTPRHVDGTEIGGGSYLAQIGHAAHAIAAGKCSVALITLAGRPRSEGQATGTEPRIPGPDRPSAPWDSAYRWTIGTIYGNFARRHMHEYGTTSEQLAWVKVAASHHAQHNPNALLRKVYTVDDVLGSPMVADPLHRLDCCVITDGGGALVIVAPEVARSLNRPRIKVV | not soluble |
| QREIQGVRHFVADLSEAARLGLVPGEHYFCVSSIRVDRQHDGAPLCWTDVYAQRDYTAVIELAREHPDQLIAGLIEQHYGRAIAVVDQQVRAVLLTAEMARALKAEAGSPGLKIIRHYREENGDLMAVSETVHPDDRFT | not soluble |
| QRQPGHFCRSVLLAPVGAFLWQRSLPALMSPLPIRKTIHWLLANKPKLFAHKFSRHAWPDSHYRRMGAGYARCRAFIPYWDMVRADTALPLLEWVQDPIELVWGDQDKVLGIDQAAAWSAILARADLTISLKPGWGHYPWIDSPAEFAQWLES | not soluble |
| NECVSKGFGCLPQSDCPQEARLSYGGCSTVCCDLSKLTGCKGKGGECNPLDRQCKELQAESASCGKGQKCCVWLH | soluble |
| GHMQTQGLAKDAWEIPRESLRLEVKLGQGCFGEVWMGTWNGTTRVAIKTLKPGTMSPEAFLQEAQVMKKLRHEKLVQLYAVVSEEPIYIVTEYMSKGCLLDFLKGEMGKYLRLPQLVDMAAQIASGMAYVERMNYVHRDLRAANILVGENLVCKVADFGLARLIEDNEYTARQGAKFPIKWTAPEAALYGRFTIKSDVWSFGILLTELTTKGRVPYPGMVNREVLDQVERGYRMPCPPECPESLHDLMCQCWRKDPEERPTFEYLQAFLEDYFTSTEPQYQPGENL | soluble |
| MQSRQRLLISVLAAGESRRFQGAKLAQSLATSTSEDRGQSLLQRHIACLANFIVSPNDRRESLGALDAELLVVIGAHQTLLRPQLEALGAVKLTLLDNPHWRTGLASSLGVAAAYAKVHQFDGMLLTLADQVALTLNDYRQLIETWQNCRKSVAAHYSSQIGELDELGAPAIFNASILDSLTDLTGDRGAKSILKQLAYVGELEAVALPNAAIDIDTKADLALWLALKELEHHHHHH | not soluble |
| SLGEMKRAAIIIDDFGGDVKGVDDFLTGEIPVTVAVMPFLEHSTKQAEIAQAAGLEVIVHMPLEPKKGKISWLGPSGITSNLSVGEVKSRVRKAFDDIPYAVGLNNHMGSKIVENEKIMRAILEVVKEKNAFIIDSGTSPHSLIPQLAEELEVPYATRSIFLDNTHSSRKEVIKNMRKLAKKAKQGSEPIGIGHVGVRGDETYAGIRSMLDEFQAESIQLVPVSQLLPSPIEEDHNKFWQQPFQAKE | soluble |
| MTDYGDADKYVNDESIEMAWAIKAGERSEVHMNLIMRCDTRVLRLNKHQDAILAAFRSSFPDLNVEEVTTSLLKDGGAKETWREFCEQFKDIVDDYSMGTLMRIHASKAYSPENTVVVPRIIYLAIEMARNVEGVNEKNKEAYTAHRNSLASL | soluble |
| MGSDKIHHHHHHMTIRQTKEANLLISERADFQVTAKIEQMAKGYIDRWHQHPWHQIAFPFEGILQTKVADSQFVIPHSGMLFIPANTPHESFVVTDTKFIGIYLNPQFQNHFPLTAKAISVTPFLRELVLHINHGVSNSIVSEEELSKLVAVLIDQISSGESYQMKLLLPSDRRLMIIFKALMTDPQLNTKLSDWAKQVGASERTLSRLFTKELGMTFPLWRQHLRLVSSLNLLETNLSVQEIAFKVGYNADSSFIYAFKKLFQQTPQQYRHSGFKLSSRINDK | not soluble |
| MSLAPAAVLELPSPTGLHPVGRRTLHLVDRHRPDPWVPAARGRELMVSVSYPARSSGARPAAYMTRSEAQRLLELKGLAGVVPAATVAGTRTHAQADAPPAPGRFPLVLLSPGFSVPRTTLTALAVDVAARGYVVAAVDHAYESVGTEFPGGRVPPCVACDRVGVDVDEATVVRGRAADLSFVIDELTGRRSTGALARLIDPGRIGVAGHSIGGAAALATMAADRRVRAGVNLDGGFFVPDAGHRIGGRPFMMVGAEAVHGPGNTAGDWAATYDRLHGWKRWLTVSGAGHFSFTDIPWLAEQLGLPDPQVPLPGERGWYITRDYVGAFFDLHLRGLPQPLLHGPTSSHPEVGFHRPEGHHHHHH | soluble |
| MDEDTEDWETQLQANRDEKDRFFSEHRQSPIPPEERDDFDGLSYFDPDPDYRVEATVTVHETPESVDLETSDDRTVRYLHVATLSFDLDGESRDLHAFRQAADESRTLFVPFRDKTTGQQSYDGGRYMELEPDRDLSDGDEITLDFNLAYSPFCAYSDTFSCPLPPESNWLETAVTAGERTDLEHHHHHH | soluble |
| MSLPMSLTIKLFLMFLLIESSIAKQKPDLDHVNVDMSEIDYSSFFKQMIEGWEREANEKYPFRPDLNNDDSSYFLQSRDQVYVNRSFFVQGKAQAYIRQWNNWKPYRDLGNKIGVLWPTQDNDCPKIEAMNPLTYMIHGLSRRYNILPLLK | soluble |
| MTTKEKVKALWQLCFDDNEEFVEMYFRLRYKNEINIAIESGDEIVSALQMIPYPMTFCGDTVQTSYISGACTHPDFRGNGVMRELLSQAFAKMLRNGTYFSTLIPAEPWLFDYYTRMGYASVFQYSVKEITVPEFIPSKEITVTSEIGCQKEVYEYLNSKLSGRTCCIQHSFEDFQVVMADLILSDGILVTARSENQINGLAIVYRRDKQLIISELFAETKDAEHSLLHHIKQFTGCRHMTQLLPPEKEQTQYPLGMARIINAKEVLQLYASAFPEDEMQLEVSDKQLSVNNGYYYLCNGKCMYSTERLPGAHIPMNISELTGRIFQALRPYMSLMLNK | not soluble |
| MEFREQVLNLLAEVAENDIVKENPDVEIFEEGIIDSFQTVGLLLEIQNKLDIEVSIMDFDRDEWATPNKIVEALEELR | not soluble |
| ESVKGAQTDLTSLTDESQEKTLENGSPSSKIAVLEVSGTIQDNGDSSSLLGADGYNHRTFLKNLERAKDDKTVKGIVLKVNSPGGGVYESAEIHKKLEEIKKETKKPIYVSMGSMAASGGYYISTAADKIFATPETLTGSLGVIMESVNYSKLADKLGISFETIKSGAHKDIMSPSREMTKEEKNIMQSMVDNSYEGFVDVISKGRGMPKAEVKKIADGRVYDGRQAKKLNLVDELGFYDDTITAMKKDHKDLKNASVISYEESFGLGSLFSMGANKMFKSEIDFLNMREILSQSGS | not soluble |
| MGSDKIHHHHHHMDTIGRRLDMGKRIVLADPRGFCAGVDRAILTVRTILKSADTPRADGLPPVYVRRQIVHNKHVVEDLAAQGAVFVQELAEIPDAAAEAGIPIVFSAHGVSPAVKAEATARGMHVVDATCPLVSKVHREVLRFVKEGYEIIYIGHKGHDEAVGVVEESPEHVHLIEHASDVDSLDFQPDTKLVLLTQTTLSVDETAGTITALKARFPWLEMPPNSDICYATSNRQAAVKLVAEQADCVVIVGSANSSNSVRLMEVAQEGLSARYASKTAVGAAGRAHRVDDASELDPAWFEGVESVGISSGASVPDELVSGVVAALQELGYQDVSTIETIKENMHFVLPAELRK | not soluble |
| MTLSFRVNPEYAAMSEIVPGLFICGVSALSKDEMKKHKITHIINATTEVPNLRSLGDIQRTKLWLEDTPQTYIYPHLELQSDQIQALIADGGKVLVHCVAGVSRSASICLAFLLKYRCRNLREAYHLMKSKRSMVRPNLGFWRQLIAYEQNVKENAGSVRLVRDEAQPEQLLPDVYLNIAIPARPASPEQDPNMIPDEPRERRNSGFKSKFRPVLEPVMEMAEAVC | not soluble |
| MDHDKLEANLLDHALTKYLKSTKQLDEATVPKHVNNVRGFILRIIYRHGSCTIKDILKEVTLSPSATTTALNHLEQEGFIERSRNNNDRRTVWITLSESGRGAAEQMIENRQQLIDGMFERLTAEEKKTFLAIIAKLAQ | not soluble |
| MGSDKIHHHHHHMNITASFRDASLVAFDFPEILTRISKIIDALKAHDDSLRYENWMLKGDNQEDATRYHVYDAAGIATPAALAVLREEFRNSKDFTYVAMWDGNLASDNGASISCHVGDKSLPDTLTLRIEGERWKAYAAISGIVSTMVTIFSPALVEVSFDEYAVKQVFDDKPGVGWMLYLPKVITQQQVPEARALIPVPAKGKQTGTIIISVTDAPFSVDNPEHVAIANRIEIRLVDQDLLPAYVDI | not soluble |
